Data published in patent US20110009474A1, “SIRTUIN BASED METHODS AND COMPOSITIONS FOR TREATING BETA-CATENIN-RELATED CONDITIONS” (President and Fellows of Harvard College, priority 2007, published 2011).

Biological target: endogenous β-catenin (human) (UniProt P35222)
Assay: cell-based or functional assay

endogenous β-catenin (human), sequence (P35222 2-781 limits assumed): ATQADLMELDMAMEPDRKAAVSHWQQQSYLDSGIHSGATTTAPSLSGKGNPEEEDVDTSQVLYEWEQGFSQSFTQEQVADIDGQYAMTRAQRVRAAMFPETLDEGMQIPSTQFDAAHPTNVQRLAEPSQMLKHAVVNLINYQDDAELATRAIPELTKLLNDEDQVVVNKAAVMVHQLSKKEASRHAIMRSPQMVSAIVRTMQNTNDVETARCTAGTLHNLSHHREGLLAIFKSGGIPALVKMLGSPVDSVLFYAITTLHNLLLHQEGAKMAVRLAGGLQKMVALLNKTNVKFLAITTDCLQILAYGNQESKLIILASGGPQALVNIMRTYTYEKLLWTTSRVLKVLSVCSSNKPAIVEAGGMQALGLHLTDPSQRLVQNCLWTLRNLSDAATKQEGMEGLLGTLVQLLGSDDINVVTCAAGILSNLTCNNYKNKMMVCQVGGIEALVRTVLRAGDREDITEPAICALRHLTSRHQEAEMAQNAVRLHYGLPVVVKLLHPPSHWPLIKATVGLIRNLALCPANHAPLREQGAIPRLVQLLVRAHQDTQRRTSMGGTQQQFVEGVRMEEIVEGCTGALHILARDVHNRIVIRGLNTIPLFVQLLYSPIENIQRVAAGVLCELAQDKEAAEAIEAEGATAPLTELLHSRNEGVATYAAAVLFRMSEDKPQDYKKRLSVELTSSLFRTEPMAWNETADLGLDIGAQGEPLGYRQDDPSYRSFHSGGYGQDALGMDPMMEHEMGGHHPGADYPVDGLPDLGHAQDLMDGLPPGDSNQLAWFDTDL

fold decrease in Super8XTopflash-Luciferase-PEST reporter activity in DLD1 cells: 2 fold
Substance: SIRT1 overexpressed from pBABE-Puro-hSir2(SIRT1) (from UniProt Q96EB6 2-747)
